# Measured values reported in the DeepSol protein solubility set.
# Assay: soluble on expression in E. coli; label from the status in PepcDB or PDB records
row,Sequence,soluble on expression in E. coli
1,MEDRFTTRRRANLESIAQRLLEISQKTEEDEANEVGEDDQHPKNVLNILNTITKEGLEKIVNDIIANGTIIDEMFVVLQRFSEKPALSNPIQRPFYSNLDDNVPSFLRNLQKWRLRDELTKSIEQEEKLKAELKHANDQINMIVEHNKLELDALNKINLEAKAQEKIQEEIIQRCMKRVEDLESILETKEQKLNDFEEREYETTCQLTMKHSLELAEKDQKILELEKYIRNNENQDVVALTRELERLRSQATKDEPSTDDSTIKISMAQHRLELEAQAKMIKTLEAELSKRQEINAEQIERLIEERNSEIKNLIREQSKEIHEKNVKIAKFEIKDYANIFRQISKNIFTNKEAPGPSGRPKKRRMVDDPEDLFHNYEDLDDAKFLELAKIIETTKKDVTTLINTEGPSEDVSGNFMEAKKIHGALAQLKEKDQTVSDLKQKTNQNNKRVDQEDPIEEYEYDYNDESDGESVKSETSSWDQIDDIF,not soluble
2,MATLATKKATLVAALKDLQRVTVAFSGGIDSTLVLKMALDVLGRDNVTAVVANSELFTDEEFDKAMSLAEELGANVQGTTLDYLSDDHIKNNTPDSWYYAKKMFYSRLNDIAANNGSAAVLDGMIKNDENDYRPGLKARSEAGARSLLQEADFFKTDVRALAQELGLTNWNKVASCSVSSRFPYGTTLTHDNIAQVMAAEKYLRSLGFPTVRVRFHNDIARIELPEARIGDFLVFNDRVNRQLQSLGFRYVTLDLGGFRSGRMNDTLTKAQLATFA,not soluble
3,MELRVGNRYRLGRKIGSGSFGDIYLGTDIAAGEEVAIKLECVKTKHPQLHIESKIYKMMQGGVGIPTIRWCGAEGDYNVMVMELLGPSLEDLFNFCSRKFSLKTVLLLADQMISRIEYIHSKNFIHRDVKPDNFLMGLGKKGNLVYIIDFGLAKKYRDARTHQHIPYRENKNLTGTARYASINTHLGIEQSRRDDLESLGYVLMYFNLGSLPWQGLKAATKRQKYERISEKKMSTPIEVLCKGYPSEFATYLNFCRSLRFDDKPDYSYLRQLFRNLFHRQGFSYDYVFDWNMLKFGASRAADDAERERRDREERLRHSRNPATRGLPSTASGRLRGTQEVAPPTPLTPTSHTANTSPRPVSGMERERKVSMRLHRGAPVNISSSDLTGRQDTSRMSTSQIPGRVASSGLQSVVHR,not soluble
4,MHDFVGFMNKISQINRDLDKYDHTINQVDSLHKRLLTEVNEEQASHLRHSLDNFVAQATDLQFKLKNEIKSAQRDGIHDTNKQAQAENSRQRFLKLIQDYRIVDSNYKEENKEQAKRQYMIIQPEATEDEVEAAISDVGGQQIFSQALLNANRRGEAKTALAEVQARHQELLKLEKSMAELTQLFNDMEELVIEQQ,soluble
5,DIVMTQSHKFMSTSVGDRVSITCKASQDVSTAVAWYQQKPGQSPKLLISWASTRHTGVPDRFTGSGSGTDYTLTISSVQAEDLALYYCQQHYTTPLTFGAGTKLELKRADAAPTVSIFPPSSEQLTSGGASVVCFLNNFYPKDINVKWKIDGSERQNGVLNSWTDQDSKDSTYSMSSTLTLTKDEYERHNSYTCEATHKTSTSPIVKSFNRN,soluble
6,MSQQHDYVIGKNAVIETLKSDRKLYKLWMAENTVKGQAQQVIELAKKQGITIQYVPRKKLDQMVTGQHQGVVAQVAAYEYAELDDLYKAAEEKNEQPFFLILDELEDPHNLGSIMRTADAVGAHGIVIPKRRAVGLTTTVAKASTGAIEHIPVARVTNLARTLEEMKERGIWVVGTDASAREDFRNMDGNMPLALVIGSEGKGMGRLVKEKCDFLIKLPMAGKVTSLNASVAAGLLMYEVYRKRNPVGE,not soluble
7,GSVSMSGGFLRDDHLEFALHLHRRLAEAVPDGEVIWSPYSVACALGVLAAGARATTRTELTTLLGTDPAPLLAALDRAVTDSPDLASRTVLWVSADVPVRSSFRATMHDRPDSDVRTADFRTNPEGVRATVNADIADATRGMIRELLPQGAVTPDLRAILTNALWAKARWTTPFEAHLTRAGTFRTPRGPKRVPFMHRTKTMPYATARGWRMVTLHAHDELAVDVLLPPGTNAAAVPTAPLLTALHRRSASTSVELALPRFELTQPHQLVEVLAEAGVRTLFTASADLSGISTVPLYVDTVIHQARLRVDERGAEGAAATAAMMLLAGAMPPRRTIRFSVDRPFHIVVRRRGAILFLGSIADPHDPGPAQ,soluble
8,MAHHHHHHMATAADYVGKNCPYCGAIDSIETDEARGEAACVNCATVVAMGLEENVATRFEKDATYADVDRGGNVGWDPENGGAIGRATARNAGLTREEAAAAAAGLLRHPNAAASVTSAGPFGDTAKYAKTRLHPRMSAQLEVFFRLSRRHDEAILRDAIALAKHFVGFRRERGMRVEHQTEVAAASVMLAAEHLGQPIPLSEMRVLDGTLKDVESRRQEILDATNLGEEMAQMTKQYAPNLIHYYVRLLQLPLICYEMPCLALFRAIRQCESKPDPGASELAVFVEAEKVVMAVLLARTESRLQWPNKPPPPADPSAEPSRAILYSSFASRAHLQPARVEKLMRVAERSVPLIQPEFERLMQTPEFAVAAVHTMGEAVVSMTAKTEDTKSYAPVKSDPIPTSAPSAPNIARGNRKRSRSRSTTPQVPPSSASQER,not soluble
9,ITLKVAIYPYVPDPARFQAAVLDQWQRQEPGVKLEFTDWDSYSADPPDDLDVFVLDSIFLSHFVDAGYLLPFGSQDIDQAEDVLPFALQGAKRNGEVYGLPQILCTNLLFYRKGDLKIGQVDNIYELYKKIGTSHSEQIPPPQNKGLLINMAGGTTKASMYLEALIDVTGQYTEYDLLPPLDPLNDKVIRGLRLLINMAGEKPSQYVPEDGDAYVRASWFAQGSGRAFIGYSESMMRMGDYAEQVRFKPISSSAGQDIPLFYSDVVSVNSKTAHPELAKKLANVMASADTVEQALRPQADGQYPQYLLPARHQVYEALMQDYPIYSELAQIVNKPSNRVFRLGPEVRTWLKDAKQVLPEALGLTDVSSLAS,soluble
10,MGSDKIHHHHHHMKVKKWVTQDFPMVEESATVRECLHRMRQYQTNECIVKDREGHFRGVVNKEDLLDLDLDSSVFNKVSLPDFFVHEEDNITHALLLFLEHQEPYLPVVDEEMRLKGAVSLHDFLEALIEALAMDVPGIRFSVLLEDKPGELRKVVDALALSNINILSVITTRSGDGKREVLIKVDAVDEGTLIKLFESLGIKIESIEKEEGF,soluble
11,MESIKLSQKAEEEIVNAARMAALSNLTEKSQNLITLEDIAIYFGRHYQTVAKIISKLPNFPKPVTPVTVDQQNSRPRYIAGEVVRWGRINAKPY,not soluble
12,MRVFKTKLIRLQLTAEELDALTADFISYKRDGVLPDIFGRDALYDDSFTWPLIKFERVAHIHLANENNPFPPQLRQFSRTNDEAHLVYCQGAFDEQAWLLIAILKPEPHKLARDNNQMHKIGKMAEAFRMRF,soluble
13,IAAGGSHVEAAPQEEWKKHFIHTGELGSAEFASVMSHTTSAMKSVFEQVNAPYSGMDPKALEDAINAVDLDNKNAPLKSVIDDVAELVAKNAIFTQHPDCIAHLHTPPLMPAVAAEAMIAALNQSMDSWDQASSATYVEQKVVNWLCDKYDLSEKADGIFTSGGTQSNQMGLMLARDWIADKLSGHSIQKLGLPDYADKLRIVCSKKSHFTVQKSASWMGLGEKAVMTVDANADGTMDITKLDEVIAQAKAEGLIPFAIVGTAGTTDHGAIDDLDFIADMAVKHDMWMHVDGAYGGALILSSHKSRLKGVERAHSISVDFHKLFYQTISCGALLVNDKSNFKFLLHHADYLNREHDELPNLVDKSIATTKRFDALKVFMTMQNVGPKALGDMYDHLLAQTLEVADMIRTNDQFELLAEPSLSTVLFRATHETADLDELNKALRLEALTRGIAVLGETIVDGKTALKFTILNPCLTTSDFESLLSKINMLAVELV,soluble
14,MGHHHHHHGGHMSLPKQIDHEKRRKQIAEATWRVILERGMEGASARNIAKEAGLSLGALRHYFSTQDELLAFAMKLVQEKVTDRIKDIAVRDLLPKEKVLQILLEMVPTNEETIREMEVWFAFTAYARHKKDMFDASHDGIFSGMRNLIAYLDESDLLKQNADKDIEAERLYALVDGLALHAMLDPVRVNKDRIKRVIMQHVESICVEDTRETQKRHPEGGS,soluble
15,MSSPDSAAHQFSICRVCDDSNGQPHYGTICCPSCKGFFRRVYMSDKKFECYRGNMCVIQKGTRNICRACRYKKCLQVGMNVKGSTTRHNLRINIYVQTSAESTPKSSKDTEMGVAEAMEMAQVYMNLEKYCENNYCESNMCREEENRLIDRMLSSTVHELIQKTSPQCPRFKRDWKPLEMLNLENFCRSWSRSIVHFLDFATRFPVFNQLSHIDKRAWFISRLAPCSFLTMAYQTRIEMCEGLLFGCSNVFPLKSDRWIAVETEHLRGLFSSITETMFSFVIYPMMNLKITDLHYSLLKACVFFSAGIVVTSVSDKGMEIMRNEYTKHKNALMKLLMNGVERFSQQTDILFQIQDVQNTLEHHKHLKSQQI,soluble
16,MVSIMNKNELITEILKNEVVKALGCTEVGLIGYTVAKAKPEDLYSIKEIKLILDKGTFKNAFSVGVPNTNKFGILPAVVGGLLGREENKLEVFKDIKYDEKLEEFIENKLKIEVIDSDVYCKVIIKANKVYEAETKGSHSGKSLSDDLKNAYKSLTLKDFIDYIEDIPEEVIKIIKETIETNKNLSTPEVPEDFISLDLKDEILNHMLKKTVSAVYNRMIGINKPAMAIAGSGNMGLTATLPIIAYDEIKGHDEEKLTKSITLSALTTIYSAYHSSYISAMCGCVNRGGIGAVSGLSYYIFGFDRIEESIKSFTANLPGIVCDGGKIGCALKIASGVFAIYLSLFSKVPYTNGIVGKDFKECIENIGKIGKAMKPVDDEIIEILKNKK,soluble
17,MKLYMSVDMEGISGLPDDTFVDSGKRNYERGRLIMTEEANYCIAEAFNSGCTEVLVNDSHSKMNNLMVEKLHPEADLISGDVKPFSMVEGLDDTFRGALFLGYHARASTPGVMSHSMIFGVRHFYINDRPVGELGLNAYVAGYYDVPVLMVAGDDRAAKEAEELIPNVTTAAVKQTISRSAVKCLSPAKRGRLLTEKTAFALQNKDKVKPLTPPDRPVLSIEFANYGQAEWANLMPGTEIKTGTTTVQFQAKDMLEAYQAMLVMTELAMRTSFC,soluble
18,SVHKPSGQIMAVKRIRSTVDEKEQKQLLMDLDVVMRSSDCPYIVQFYGALFREGDCWICMELMSTSFDKFYKYVYSVLDDVIPEEILGKITLATVKALNHLKENLKIIHRDIKPSNILLDRSGNIKLCDFGISGQLVDSIAKTRDAGCRPYMAPERIDPSASRQGYDVRSDVWSLGITLYELATGRFPYPKWNSVFDQLTQVVKGDPPQLSNSEEREFSPSFINFVNLCLTKDESKRPKYKELLKHPFILMYEERTVEVACYVCKILDQMPATPSSPMYVD,soluble
19,MSLVPARPNRPEADREALWKIVHDRCEFGYRRTGAYAPCTFVDEQSGTALYKADFDPYQFLLIPLARITGIEDPALRESAGRNYLYDAWAARFLVTARLNNSLPESDVVLTINPKNARTQDQLHIHISCSSPTTSAALRNVDTSEYVGWKQLPIDLGGRRFQGLAVDTKAFESRNLFRDIYLKVTADGKKMENASIAVANVAQDQFLLLLAEGTEDQPVAAETLQDHDCSITKSEGHHHHHH,soluble
20,MAHHHHHHMTNKSYPTSLVTTPKVRRKSSEHGTFHNSSPKKKNRDIRDFFTANKCNESVEKSWNNNINKRSYHDSPMNDSPNTTLKFLSKKYKTEIN,soluble
